Measurements published in patent US12227771B2, “Expression systems and methods of use thereof” (Janssen Pharmaceutica NV, priority 2019, dated 2025).

B1: TMEM132A: Transmembrane protein 132A, SEQ ID NO: 5, co-transfected cDNA clone (protein, listed as Homo sapiens)
chain: MCARMAGRTTAAPRGPYGPWLCLLVALALDVVRVDCGQAPLDPVYLPAALELLDAPEHFRVQQVGHYPPANSSLSSRSETFLLLQPWPRAQPLLRASYPPFATQQVVPPRVTEPHQRPVPWDVRAVSVEAAVTPAEPYARVLFHLKGQDWPPGSGSLPCARLHATHPAGTAHQACRFQPSLGACVVELELPSHWFSQASTTRAELAYTLEPAAEGPGGCGSGEENDPGEQALPVGGVELRPADPPQYQEVPLDEAVTLRVPDMPVRPGQLFSATLLLRHNFTASLLTLRIKVKKGLHVTAARPAQPTLWTAKLDRFKGSRHHTTLITCHRAGLTEPDSSPLELSEFLWVDFVVENSTGGGVAVTRPVTWQLEYPGQAPEAEKDKMVWEILVSERDIRALIPLAKAEELVNTAPLTGVPQHVPVRLVTVDGGGALVEVTEHVGCESANTQVLQVSEACDAVFVAGKESRGARGVRVDFWWRRLRASLRLTVWAPLLPLRIELTDTTLEQVRGWRVPGPAEGPAEPAAEASDEAERRARGCHLQYQRAGVRFLAPFAAHPLDGGRRLTHLLGPDWLLDVSHLVAPHARVLDSRVASLEGGRVVVGREPGVTSIEVRSPLSDSILGEQALAVTDDKVSVLELRVQPVMGISLTLSRGTAHPGEVTATCWAQSALPAPKQEVALSLWLSFSDHTVAPAELYDRRDLGLSVSAEEPGAILPAEEQGAQLGVVVSGAGAEGLPLHVALHPPEPCRRGRHRVPLASGTAWLGLPPASTPAPALPSSPAWSPPATEATMGGKRQVAGSVGGNTGVRGKFERAEEEARKEETEAREEEEEEEEEMVPAPQHVTELELGMYALLGVFCVAIFIFLVNGVVFVLRYQRKEPPDSATDPTSPQPHNWVWLGTDQEELSRQLDRQSPGPPKGEGSCPCESGGGGEAPTLAPGPPGGTTSSSSTLARKEAGGRRKRVEFVTFAPAPPAQSPEEPVGAPAVQSILVAGEEDIRWVCEDMGLKDPEELRNYMERIRGSS
B2: TMIE: Transmembrane inner ear expressed protein, SEQ ID NO: 4, co-transfected cDNA clone (protein, listed as Homo sapiens)
chain: MAGWPGAGPLCVLGGAALGVCLAGVAGQLVEPSTAPPKPKPPPLTKETVVFWDMRLWHVVGIFSLFVLSIIITLCCVFNCRVPRTRKEIEARYLQRKAAKMYTDKLETVPPLNELTEVPGEDKKKKKKKKKDSVDTVAIKVEEDEKNEAKKKKGEK
B3: CHAT: Choline O-acetyltransferase, SEQ ID NO: 3, co-transfected cDNA clone (protein, listed as Homo sapiens)
chain: MAAKTPSSEESGLPKLPVPPLQQTLATYLQCMRHLVSEEQFRKSQAIVQQFGAPGGLGETLQQKLLERQEKTANWVSEYWLNDMYLNNRLALPVNSSPAVIFARQHFPGTDDQLRFAASLISGVLSYKALLDSHSIPTDCAKGQLSGQPLCMKQYYGLFSSYRLPGHTQDTLVAQNSSIMPEPEHVIVACCNQFFVLDVVINFRRLSEGDLFTQLRKIVKMASNEDERLPPIGLLTSDGRSEWAEARTVLVKDSTNRDSLDMIERCICLVCLDAPGGVELSDTHRALQLLHGGGYSKNGANRWYDKSLQFVVGRDGTCGVVCEHSPFDGIVLVQCTEHLLKHMTQSSRKLIRADSVSELPAPRRLRWKCSPEIQGHLASSAEKLQRIVKNLDFIVYKFDNYGKTFIKKQKCSPDAFIQVALQLAFYRLHRRLVPTYESASIRRFQEGRVDNIRSATPEALAFVRAVTDHKAAVPASEKLLLLKDAIRAQTAYTVMAITGMAIDNHLLALRELARAMCKELPEMFMDETYLMSNRFVLSTSQVPTTTEMFCCYGPVVPNGYGACYNPQPETILFCISSFHSCKETSSSKFAKAVEESLIDMRDLCSLLPPTESKPLATKEKATRPSQGHQP

Biological target: T1, human α9α10 nAChR (Homo sapiens, UniProt Q9GZZ6+Q9UGM1)
T1 construct: expressed in transfected cells; host or cells: HEK293T
Assay: FLIPR calcium assay of HEK293T cells co-transfected with α9α10 nAChR and cDNA clones, response evoked by 200 μM ACh
Type: cell-based
Conditions: for FLIPR Response (Fold/Baseline) / functional expression of co-transfected α9α10 nAChR in cDNA library screen / combined effect of TMIE and CHAT on functional responses from α9α10 nAChR: 200 μM ACh; for FLIPR Response (Fold/Baseline): 180 s; for functional expression of co-transfected α9α10 nAChR in cDNA library screen: HEK293T, 20,000 cDNA clones; for FLIPR response evoked by 200 μM ACh: HEK293T transfected with α9α10 nAChR and the named protein; for combined effect of TMIE and CHAT on functional responses from α9α10 nAChR: HEK293T
Method: Human embryonic kidney 293T (HEK293T) cells were cultured in high glucose DMEM medium supplemented with 10% FBS, sodium pyruvate and penicillin/streptomycin. Prior to transfection, cells were seeded at ˜80-90% confluence in 384-well fluorescence imaging plate reader (FLIPR) assay plates. After a 4 hour (hr) incubation, wells of cells were individually co-transfected with human α9α10 nAChR plus one of 20,000 clones from cDNA libraries encoding most all human proteins (Origene Technologies; Rockville, Md.; Broad Institute; Cambridge, Mass.) using Fugene HD (Promega; Madison, Wis.) according to the manufacture's protocol. After two days incubation, cells were washed three times with assay buffer (137 mM NaCl, 4 mM KCl, 2 mM CaCl2, 1 mM MgCl2, 5 mM glucose, 10 mM HEPES pH7.4) and loaded with Calcium5 dye (Molecular Devices; San Jose, Calif.) and 1.25 mM probenecid for 1 hr at room temperature (RT). After three washes, the plates were placed in the FLIPR stage.
To further characterize the regulation of α9α10 nAChR expression, HEK293T cells were co-transfected with α9α10 nAChR and each of CHAT, TMIE, TMEM100, TMEM132A, TMEM132C, TMEM132D, TMEM132E and TNFRSF10A individually and in combination (Table 2).

[1] = HEK293T co-transfected with α9α10 nAChR + CHAT plus the named gene
[2] = HEK293T co-transfected with α9α10 nAChR plus the named gene

T1 sequence (Q9UGM1 23-479): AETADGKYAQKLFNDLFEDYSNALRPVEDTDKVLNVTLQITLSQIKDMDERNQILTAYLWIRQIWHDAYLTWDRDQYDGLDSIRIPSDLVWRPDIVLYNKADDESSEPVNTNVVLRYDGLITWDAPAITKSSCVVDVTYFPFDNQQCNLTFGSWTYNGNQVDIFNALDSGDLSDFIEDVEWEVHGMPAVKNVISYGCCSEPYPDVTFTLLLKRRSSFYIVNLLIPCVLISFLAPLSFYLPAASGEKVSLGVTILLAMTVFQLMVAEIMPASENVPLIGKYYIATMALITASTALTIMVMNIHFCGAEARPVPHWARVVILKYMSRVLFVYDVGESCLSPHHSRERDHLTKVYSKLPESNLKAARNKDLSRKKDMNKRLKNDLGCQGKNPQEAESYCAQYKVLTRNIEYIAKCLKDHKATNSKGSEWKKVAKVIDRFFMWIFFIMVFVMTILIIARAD
T1 sequence (Q9GZZ6 25-450): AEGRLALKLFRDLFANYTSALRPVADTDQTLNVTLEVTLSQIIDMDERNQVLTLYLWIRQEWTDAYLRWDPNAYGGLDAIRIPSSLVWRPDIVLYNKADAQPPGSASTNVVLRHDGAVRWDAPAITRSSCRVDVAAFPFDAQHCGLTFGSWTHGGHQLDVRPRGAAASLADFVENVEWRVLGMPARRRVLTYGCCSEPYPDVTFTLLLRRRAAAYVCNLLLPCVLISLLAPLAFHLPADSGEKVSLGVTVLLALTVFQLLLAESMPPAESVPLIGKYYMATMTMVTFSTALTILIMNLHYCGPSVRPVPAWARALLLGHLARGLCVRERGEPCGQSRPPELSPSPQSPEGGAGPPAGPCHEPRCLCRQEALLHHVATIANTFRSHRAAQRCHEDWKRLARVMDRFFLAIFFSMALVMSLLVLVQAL

Molecule | FLIPR Response (Fold/Baseline) [1] [Fold/Baseline] | FLIPR Response (Fold/Baseline) [2] [Fold/Baseline] | functional expression of co-transfected α9α10 nAChR in cDNA library screen | FLIPR response evoked by 200 μM ACh | combined effect of TMIE and CHAT on functional responses from α9α10 nAChR
B1 | 2.5 | 0.3 | enabled functional expression |  | 
B2 | 2.2 | 0.7 | enabled functional expression | significant FLIPR responses | synergized to enhance functional responses
B3 |  |  | enabled functional expression | significant FLIPR responses | synergized to enhance functional responses
